Consider 1 sequence from article PMC9135449.

The target of the data set is T1, HP1043 (Helicobacter pylori 26695?) (UniProt O25684).
T1 sequence: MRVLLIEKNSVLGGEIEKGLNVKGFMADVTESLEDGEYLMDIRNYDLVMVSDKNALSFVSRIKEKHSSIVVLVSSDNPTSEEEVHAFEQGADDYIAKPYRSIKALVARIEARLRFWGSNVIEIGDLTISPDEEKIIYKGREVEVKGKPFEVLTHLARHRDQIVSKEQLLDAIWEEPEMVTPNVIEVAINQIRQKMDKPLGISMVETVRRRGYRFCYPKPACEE
The data set can be described thus: EMSA. The following applies: 10 mM Tris-HCl pH 7.5, 40 mM KCl, 100 ug/ml BSA, 1 mM DTT, 5% glycerol, 25 ul, room temperature 30 min; 6% native PAGE in 45 mM Tris/45 mM orthoboric acid ….

With “GCCAAAACGCCTAAAGCCACAATAACCTTTTTCATCGTTTGTCTCCTCTACTTATCAAAATGATCTTAAAATGATACAATTACAAGTTTAAGTTTTGCTTAAAAAATGAAGTGAAAATAAGAGAAATAAATATGATTTTATACATTCATATCCCCTTTTGTGAAAATAAATGCGGTTATTGCGCTTTCAA (double strand) [Php1227 190-bp promoter probe]”, the binding result is reported as “binds”.
